From publication PMC4889941, “Flexibility of KorA, a plasmid-encoded, global transcription regulator, in the presence and the absence of its operator” (Nucleic Acids Research, 2016)

Molecular target: the molecule itself
Test: SAXS; free KorA at 2.5, 5 and 10 mg/ml in 20 mM Tris-HCl pH 7.0, 100 mM NaCl, 1 mM EDTA, 293K; confirmed by SEC-SAXS (Superdex 200 Increase, 4 mg/ml); mass from I0 against bovine serum albumin

B1: KorA repressor from the IncP1 plasmid RK2 (natural protein)
chain: MKKRLTESQFQEAIQGLEVGQQTIEIARGVLVDGKPQATFATSLGLTRGAVSQAVHRVWAAFEDKNLPEGYARVTAVLPEHQAYIVRKWEADAKKKQETKR
notes: KorA, global transcription repressor encoded by the IncP1 plasmid RK2; 13C/15N-labelled protein was used for NMR; also called free KorA; KorA dimer
stoichiometry N: 2
